Experimental data from publication PMC10397247.

Legend:
[1] = biological target: T1, 4H2961-AA; assay: two-hybrid library CCmax; conditions: mean of both orientations;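 further: natural log of median RNA to DNA barcode read ratio; higher means stronger binding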
T1 chain: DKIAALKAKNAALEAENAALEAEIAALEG

[2] = biological target: T2, 4H3049-AA; assay: two-hybrid library CCmax; conditions: mean of both orientations;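 further: natural log of median RNA to DNA barcode read ratio; higher means stronger binding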
T2 chain: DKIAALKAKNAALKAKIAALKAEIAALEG

[3] = biological target: T3, 4H3629-AA; assay: two-hybrid library CCmax; conditions: mean of both orientations;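 further: natural log of median RNA to DNA barcode read ratio; higher means stronger binding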
T3 chain: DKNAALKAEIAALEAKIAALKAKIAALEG

[4] = biological target: T4, 4H2621-AA; assay: two-hybrid library CCmax; conditions: mean of both orientations;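 further: natural log of median RNA to DNA barcode read ratio; higher means stronger binding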
T4 chain: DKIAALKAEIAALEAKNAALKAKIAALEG

[5] = biological target: T5, 4H1913-AA; assay: two-hybrid library CCmax; conditions: mean of both orientations
T5 chain: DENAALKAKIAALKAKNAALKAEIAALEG

[6] = biological target: T6, 4H341-AA; assay: two-hybrid library CCmax; conditions: mean of both orientations
T6 chain: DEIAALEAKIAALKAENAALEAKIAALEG

[7] = biological target: T7, 4H2699-AA; assay: two-hybrid library CCmax; conditions: mean of both orientations
T7 chain: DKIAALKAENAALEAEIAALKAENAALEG

[8] = biological target: T8, 4H380-AA; assay: two-hybrid library CCmax; conditions: mean of both orientations
T8 chain: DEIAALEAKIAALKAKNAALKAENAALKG

[9] = biological target: T9, 4H1454-AA; assay: two-hybrid library CCmax
T9 chain: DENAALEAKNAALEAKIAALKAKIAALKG

[10] = biological target: T10, 4H2903-AA; assay: two-hybrid library CCmax; conditions: mean of both orientations
T10 chain: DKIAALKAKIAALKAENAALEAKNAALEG

[11] = biological target: T11, 4H3414-AA; assay: two-hybrid library CCmax; conditions: mean of both orientations
T11 chain: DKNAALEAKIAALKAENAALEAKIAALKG

[12] = biological target: T12, 4H3595-AA; assay: two-hybrid library CCmax; conditions: mean of both orientations
T12 chain: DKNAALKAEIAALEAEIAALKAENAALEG

[13] = biological target: T13, 4H3969-AA; assay: two-hybrid library CCmax; conditions: mean of both orientations
T13 chain: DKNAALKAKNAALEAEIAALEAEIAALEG

[14] = biological target: T14, 4H2728-AA; assay: two-hybrid library CCmax; conditions: mean of both orientations
T14 chain: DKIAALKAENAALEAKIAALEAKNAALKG

[15] = biological target: T15, 4H3129-AA; assay: two-hybrid library CCmax; conditions: mean of both orientations
T15 chain: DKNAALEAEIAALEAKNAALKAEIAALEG

[16] = biological target: T16, 4H483-AA; assay: two-hybrid library CCmax; conditions: mean of both orientations
T16 chain: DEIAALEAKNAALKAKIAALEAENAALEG

[17] = biological target: T17, 4H1558-AA; assay: two-hybrid library CCmax; conditions: mean of both orientations
T17 chain: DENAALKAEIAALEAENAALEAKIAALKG

[18] = biological target: T18, 4H464-AA; assay: two-hybrid library CCmax; conditions: mean of both orientations
T18 chain: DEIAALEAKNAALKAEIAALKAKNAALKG

[19] = biological target: T19, 4H63-AA; assay: two-hybrid library CCmax; conditions: mean of both orientations
T19 chain: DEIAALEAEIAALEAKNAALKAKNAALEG

[20] = biological target: T20, 4H249-AA; assay: two-hybrid library CCmax; conditions: mean of both orientations
T20 chain: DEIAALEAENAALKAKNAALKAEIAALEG

[21] = biological target: T21, 4H2580-AA; assay: two-hybrid library CCmax; conditions: mean of both orientations
T21 chain: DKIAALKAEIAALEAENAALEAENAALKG

[22] = biological target: T22, 4H3782-AA; assay: two-hybrid library CCmax; conditions: mean of both orientations
T22 chain: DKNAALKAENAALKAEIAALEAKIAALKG

[23] = biological target: T23, 4H446-AA; assay: two-hybrid library CCmax; conditions: mean of both orientations
T23 chain: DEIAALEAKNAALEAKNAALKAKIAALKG

[24] = biological target: T24, 4H3939-AA; assay: two-hybrid library CCmax; conditions: mean of both orientations
T24 chain: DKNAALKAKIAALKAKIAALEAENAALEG

[25] = biological target: T25, 4H2774-AA; assay: two-hybrid library CCmax; conditions: mean of both orientations
T25 chain: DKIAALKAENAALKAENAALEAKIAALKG

[26] = biological target: T26, P7A-bP; assay: two-hybrid library CCNG1
T26 chain: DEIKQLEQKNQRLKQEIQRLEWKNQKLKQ

[27] = biological target: T27, P5A-bP; assay: two-hybrid library CCNG1
T27 chain: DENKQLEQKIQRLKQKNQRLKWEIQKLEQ

[28] = biological target: T28, P8A-bP; assay: two-hybrid library CCNG1
T28 chain: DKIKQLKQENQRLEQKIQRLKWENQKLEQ

[29] = biological target: T29, P4A-bP; assay: two-hybrid library CCNG1
T29 chain: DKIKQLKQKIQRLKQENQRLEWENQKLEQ

[30] = biological target: T30, P3A-bP; assay: two-hybrid library CCNG1
T30 chain: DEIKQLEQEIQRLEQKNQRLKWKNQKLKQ

[31] = biological target: T31, P9A-bP; assay: two-hybrid library CCNG1
T31 chain: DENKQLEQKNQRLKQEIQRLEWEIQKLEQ

[32] = biological target: T32, P6A-bP; assay: two-hybrid library CCNG1
T32 chain: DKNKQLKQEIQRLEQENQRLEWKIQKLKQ

[33] = biological target: T33, 4H338-bA; assay: two-hybrid library CCNG1
T33 chain: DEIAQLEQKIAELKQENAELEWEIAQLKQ

[34] = biological target: T34, 4H2692-bH; assay: two-hybrid library CCNG1
T34 chain: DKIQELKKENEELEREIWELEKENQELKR

[35] = biological target: T35, 4H477-bH; assay: two-hybrid library CCNG1
T35 chain: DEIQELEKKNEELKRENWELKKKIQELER

[36] = biological target: T36, 4H40-bH; assay: two-hybrid library CCNG1
T36 chain: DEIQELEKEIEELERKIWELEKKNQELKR

[37] = biological target: T37, 4H2915-bH; assay: two-hybrid library CCNG1
T37 chain: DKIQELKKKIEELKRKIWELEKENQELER

[38] = biological target: T38, 4H319-bH; assay: two-hybrid library CCNG1
T38 chain: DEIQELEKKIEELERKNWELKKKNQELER

[39] = biological target: T39, 4H2839-bH; assay: two-hybrid library CCNG1
T39 chain: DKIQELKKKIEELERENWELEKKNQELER

[40] = biological target: T40, 4H3057-bH; assay: two-hybrid library CCNG1
T40 chain: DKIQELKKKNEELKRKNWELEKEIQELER

[41] = biological target: T41, 4H492-bH; assay: two-hybrid library CCNG1
T41 chain: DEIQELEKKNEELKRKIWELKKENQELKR

[42] = biological target: T42, 4H2717-bH; assay: two-hybrid library CCNG1
T42 chain: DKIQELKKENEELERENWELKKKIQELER

[43] = biological target: T43, 4H741-bH; assay: two-hybrid library CCNG1
T43 chain: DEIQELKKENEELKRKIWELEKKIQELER

[44] = biological target: T44, P7SH; assay: two-hybrid library CCNG1
T44 chain: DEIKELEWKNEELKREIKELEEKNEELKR

[45] = biological target: T45, 4H2588-bH; assay: two-hybrid library CCNG1
T45 chain: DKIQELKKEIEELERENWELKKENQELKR

[46] = biological target: T46, 4H3277-bH; assay: two-hybrid library CCNG1
T46 chain: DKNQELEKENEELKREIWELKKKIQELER

[47] = biological target: T47, 4H454-bA; assay: two-hybrid library CCNG1
T47 chain: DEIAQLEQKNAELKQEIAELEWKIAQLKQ

[48] = biological target: T48, 4H2518-bA; assay: two-hybrid library CCNG1
T48 chain: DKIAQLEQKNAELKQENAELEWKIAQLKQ

[49] = biological target: T49, 4H3364-bA; assay: two-hybrid library CCNG1
T49 chain: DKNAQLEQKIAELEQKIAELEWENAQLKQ

[50] = biological target: T50, 4H331-bA; assay: two-hybrid library CCNG1
T50 chain: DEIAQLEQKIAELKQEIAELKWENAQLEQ

[51] = biological target: T51, 4H2859-bA; assay: two-hybrid library CCNG1
T51 chain: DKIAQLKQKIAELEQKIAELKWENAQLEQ

[52] = biological target: T52, 4H235-bA; assay: two-hybrid library CCNG1
T52 chain: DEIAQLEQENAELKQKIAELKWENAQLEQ

[53] = biological target: T53, 4H796-bA; assay: two-hybrid library CCNG1
T53 chain: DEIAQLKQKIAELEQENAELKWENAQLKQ

[54] = biological target: T54, 4H56-bA; assay: two-hybrid library CCNG1
T54 chain: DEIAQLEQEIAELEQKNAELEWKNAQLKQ

[55] = biological target: T55, 4H575-bH; assay: two-hybrid library CCNG1
T55 chain: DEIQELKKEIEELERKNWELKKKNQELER

[56] = biological target: T56, 4H730-bA; assay: two-hybrid library CCNG1
T56 chain: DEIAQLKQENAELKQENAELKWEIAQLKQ

[57] = biological target: T57, 4H2585-bA; assay: two-hybrid library CCNG1
T57 chain: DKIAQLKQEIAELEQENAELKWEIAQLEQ

[58] = biological target: T58, 4H2760-bA; assay: two-hybrid library CCNG1
T58 chain: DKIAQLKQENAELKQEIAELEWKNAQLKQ

[59] = biological target: T59, 4H3041-bA; assay: two-hybrid library CCNG1
T59 chain: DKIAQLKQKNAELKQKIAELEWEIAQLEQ

[60] = biological target: T60, 4H349-bA; assay: two-hybrid library CCNG1
T60 chain: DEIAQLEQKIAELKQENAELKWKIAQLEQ

[61] = biological target: T61, 4H3381-bA; assay: two-hybrid library CCNG1
T61 chain: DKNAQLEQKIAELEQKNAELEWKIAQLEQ

[62] = biological target: T62, 4H2444-bA; assay: two-hybrid library CCNG1
T62 chain: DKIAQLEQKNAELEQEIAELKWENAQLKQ

[63] = biological target: T63, 4H932-bA; assay: two-hybrid library CCNG1
T63 chain: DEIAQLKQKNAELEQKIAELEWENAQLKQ

[64] = biological target: T64, 4H2931-bA; assay: two-hybrid library CCNG1
T64 chain: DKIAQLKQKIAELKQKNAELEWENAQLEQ

[65] = biological target: T65, 4H264-bA; assay: two-hybrid library CCNG1
T65 chain: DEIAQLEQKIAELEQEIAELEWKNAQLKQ

[66] = biological target: T66, 4H949-bA; assay: two-hybrid library CCNG1
T66 chain: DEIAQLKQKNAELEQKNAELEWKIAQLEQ

[67] = biological target: T67, 4H3297-bA; assay: two-hybrid library CCNG1
T67 chain: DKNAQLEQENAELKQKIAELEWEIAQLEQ

[68] = biological target: T68, P8SH; assay: two-hybrid library CCNG1
T68 chain: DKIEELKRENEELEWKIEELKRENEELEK

B1: 4H1454-AA (peptide)
chain: DENAALEAKNAALEAKIAALKAKIAALKG
interaction score [1]: 1.04 | interaction score [2]: 0.754 | interaction score [3]: -1.38 | interaction score [4]: -0.876 | interaction score [5]: -1.24 | interaction score [6]: -1.24 | interaction score [7]: -0.894 | interaction score [8]: -1.14 | interaction score [9]: -1.09 | interaction score [10]: -1.74 | interaction score [11]: -1.31 | interaction score [12]: 0.813 | interaction score [13]: 2.05 | interaction score [14]: -1.37 | interaction score [15]: -1.84 | interaction score [16]: -0.924 | interaction score [17]: -0.946 | interaction score [18]: -1.48 | interaction score [19]: -0.402 | interaction score [20]: -1.11 | interaction score [21]: -0.961 | interaction score [22]: 0.615 | interaction score [23]: -1.96 | interaction score [24]: -1.25 | interaction score [25]: -1.09

B2: P3A-bP (peptide)
chain: DEIKQLEQEIQRLEQKNQRLKWKNQKLKQ
interaction score [26]: -0.807 | interaction score [27]: -0.806 | interaction score [28]: -0.641 | interaction score [29]: 0.89 | interaction score [30]: -0.848 | interaction score [31]: -0.126 | interaction score [32]: -0.316

B3: 4H2588-bH (peptide)
chain: DKIQELKKEIEELERENWELKKENQELKR
interaction score [33]: 0.393 | interaction score [34]: 0.605 | interaction score [35]: -0.292 | interaction score [36]: -0.884 | interaction score [37]: 1.07 | interaction score [38]: 0.617 | interaction score [39]: 1.07 | interaction score [40]: 0.192 | interaction score [41]: -1.5 | interaction score [42]: -0.116 | interaction score [43]: 0.417 | interaction score [44]: -0.241 | interaction score [45]: 0.98 | interaction score [46]: -0.69

B4: 4H235-bA (peptide)
chain: DEIAQLEQENAELKQKIAELKWENAQLEQ
interaction score [47]: 0.0882 | interaction score [48]: -0.69 | interaction score [49]: -0.845 | interaction score [50]: -2 | interaction score [51]: -0.319 | interaction score [52]: 0.082 | interaction score [53]: -0.862 | interaction score [54]: -1.05 | interaction score [55]: -3.02 | interaction score [56]: -0.952 | interaction score [57]: -0.367 | interaction score [58]: 1.96 | interaction score [59]: 0.563 | interaction score [60]: -0.682 | interaction score [61]: -0.985 | interaction score [62]: -0.488 | interaction score [63]: -0.974 | interaction score [64]: -0.643 | interaction score [65]: -0.636 | interaction score [66]: -0.885 | interaction score [67]: -0.354

B5: P7SH (peptide)
chain: DEIKELEWKNEELKREIKELEEKNEELKR
interaction score [68]: 2.08 | interaction score [44]: -0.227
